Measured values reported in the FLAb antibody collection.

B1: unnamed (protein)
chain 1: QVQLVQSGAEVKKPGSSVKVSCKASGYTFTDQTIHWMRQAPGQGLEWIGYIYPRDDSPKYNENFKGKVTITADKSTSTAYMELSSLRSEDTAVYYCAIPDRSGYAWFIYWGQGTLVTVSS
chain 2: DIQMTQSPSSLSASVGDRVTITCKASRDVAIAVAWYQQKPGKVPKLLIYWASTRHTGVPSRFSGSGSRTDFTLTISSLQPEDVADYFCHQYSSYPFTFGSGTKLEIK
B2: unnamed (protein)
chain 1: EVQLVESGGGLVKPGGSLRLSCAASGFTFSNYAMSWVRQAPGKGLEWVATISSGGSHTYYLDSVKGRFTISRDNSKNTLYLQMNSLRAEDTALYYCARLFTGYAMDYWGQGTLVTVSS
chain 2: QIVLTQSPATLSLSPGERATMSCTASSSVSSSYLHWYQQKPGKAPKLWIYSTSNLASGVPSRFSGSGSGTDYTLTISSLQPEDFATYYCHQYYRLPPITFGQGTKLEIK
B3: unnamed (protein)
chain 1: EVQLVQSGAEVKKPGASVKVSCKASGYTFTDYNMHWVRQAPGQGLEWMGEINPNSGGAGYNQKFKGRVTMTTDTSTSTAYMELRSLRSDDTAVYYCARLGYDDIYDDWYFDVWGQGTTVTVSS
chain 2: DIQMTQSPSSLSASVGDRVTITCRASQDISNYLNWYQQKPGKAPKLLIYYTSRLLSGVPSRFSGSGSGTDFTLTISSLQPEDFATYYCQQGDTLPYTFGGGTKVEIK
B4: unnamed (protein)
chain 1: EVQLVESGGGLVQPGGSLRLSCAASGFTFSPFAMSWVRQAPGKGLEWVAKISPGGSWTYYSDTVTGRFTISRDNAKNSLYLQMNSLRAEDTAVYYCARQLWGYYALDIWGQGTTVTVSS
chain 2: EIVLTQSPATLSLSPGERATLSCSASISVSYMYWYQQKPGQAPRLLIYDMSNLASGIPARFSGSGSGTDFTLTISSLEPEDFAVYYCMQWSGYPYTFGGGTKVEIK
B5: unnamed (protein)
chain 1: QVQLQQPGAELVKPGASVKMSCKASGYTFTSYNMHWVKQTPGRGLEWIGAIYPGNGDTSYNQKFKGKATLTADKSSSTAYMQLSSLTSEDSAVYYCARSTYYGGDWYFNVWGAGTTVTVSA
chain 2: QIVLSQSPAILSASPGEKVTMTCRASSSVSYIHWFQQKPGSSPKPWIYATSNLASGVPVRFSGSGSGTSYSLTISRVEAEDAATYYCQQWTSNPPTFGGGTKLEIK
B6: unnamed (protein)
chain 1: QVQLVESGGGLVQPGGSLRLSCAASGFTFRSHWLSWVRQAPGKGLEWVSNINYDGSSTYYADSVKGRFTISRDNSKNTLYLQMNSLRAEDTAVYYCARDTYLHFDYWGQGTLVTVSS
chain 2: DIALTQPASVSGSPGQSITISCTGTSSDVGDINDVSWYQQHPGKAPKLMIYDVNNRPSGVSNRFSGSKSGNTASLTISGLQAEDEADYYCQSYAGSYLSEVFGGGTKLTVL
B7: unnamed (protein)
chain 1: QVQLVESGGGVVQPGRSLRLSCTASGFTFKNYAMHWVRQAPAKGLEWVATISYDGRNIQYADSVKGRFTFSRDNSQDTLYLQLNSLRPEDTAVYYCARPVRSRWLQLGLEDAFHIWGQGTMVTVSS
chain 2: AIRMTQSPSSFSASTGDRVTITCRASQDIRNYVAWYQQKSGKAPKFLIYAASTLQSGVPSRFSGSGSGTDFTLTINSLQSEDFATYYCQQYYNSPPTFGQGTRVEIT
B8: unnamed (protein)
chain 1: EVQLVESGGKLLKPGGSLKLSCAASGFTFSSFAMSWFRQSPEKRLEWVAEISSGGSYTYYPDTVTGRFTISRDNAKNTLYLEMSSLRSEDTAMYYCARGLWGYYALDYWGQGTSVTVSS
chain 2: QIVLIQSPAIMSASPGEKVTMTCSASSSVSYMYWYQQKPGSSPRLLIYDTSNLASGVPVRFSGSGSGTSYSLTISRMEAEDAATYYCQQWSGYPYTFGGGTKLEIK
B9: unnamed (protein)
chain 1: EVQLVQSGGGLVKPGGSLRLSCAASGFTFSSFAMHWVRQAPGKGLEWISVIDTRGATYYADSVKGRFTISRDNAKNSLYLQMNSLRAEDTAVYYCARLGNFYYGMDVWGQGTTVTVSS
chain 2: EIVLTQSPGTLSVSPGERATLSCRASQSIGSSLHWYQQKPGQAPRLLIKYASQSLSGIPDRFSGSGSGTDFTLTISRLEPEDFAVYYCHQSSRLPHTFGQGTKVEIK
B10: unnamed (protein)
chain 1: EVQLVESGGGLVQPGGSLRLSCAASGFTFSRYSMSWVRQAPGKGLELVAQINSVGNSTYYPDTVKGRFTISRDNAKNTLYLQMNSLRAEDTAVYYCASGDYWGQGTLVTVSS
chain 2: DVVMTQSPLSLPVTLGQPASISCRSSQSLIYSDGNAYLHWFLQKPGQSPRLLIYKVSNRFSGVPDRFSGSGSGTDFTLKISRVEAEDVGVYYCSQSTHVPWTFGQGTKVEIK
B11: unnamed (protein)
chain 1: EVQLQQSGPELEKPGASVKLSCKASGYSFTGYNMNWVKQSHGKSLEWIGHIDPYYGDTSYNQKFRGKATLTVDKSSSTAYMQLKSLTSEDSAVYYCVKGGYYGHWYFDVWGAGTTVTVSS
chain 2: DIQMTQSPSSLSASLGERVSLTCRASQDIGSSLNWLQQGPDGTIKRLIYATSSLDSGVPKRFSGSRSGSDYSLTISSLESEDFVDYYCLQYVSSPPTFGAGTKLELK
B12: unnamed (protein)
chain 1: QVQLQQSDAELVKPGASVKISCKASGYTFTDHAIHWAKQKPEQGLEWIGYISPGNDDIKYNEKFKGKATLTADKSSSTAYMQLNSLTSEDSAVYFCKRSYYGHWGQGTTLTVSS
chain 2: DIQMTQSPASLSVSVGETVTITCRASENIYSNLAWYQQKQGKSPQLLVYAATNLADGVPSRFSGSGSGTQYSLKINSLQSEDFGSYYCQHFWGTPYTFGGGTRLEIK
B13: unnamed (protein)
chain 1: EVQLVESGGDLVQPGRSLRLSCVASGFTFDDYAMHWVRQAPGKGLEWVSGVSWSGSTVGYADSVKGRFTVSRDNAQKSLYLQMNSLRAEDTALYYCVKDAYKFNYYYYGLDVWGQGTTVTVSS
chain 2: EIVMTQSPATLSVSPGERATLSCRASQTILSNLAWYLQKPGQAPRLLIYGASTRATGLPARFSGSGSGTEFTLTISSLQSEDFAVYYCQQYNNWPLTFGGGTKVEIK
B14: unnamed (protein)
chain 1: QVQLVQSGAEVKKPGASVKVSCKASGYTFTNYGMNWVRQAPGQGLEWMGWINTYTGEPTYADDFKGRVTMTTDTSTSTAYMELRSLRSDDTAVYYCARIGDSSPSDYWGQGTLVTVSS
chain 2: EIVMTQSPATLSVSPGERATLSCKASQSVSNDVVWYQQKPGQAPRLLIYYASNRYTGIPARFSGSGSGTEFTLTISSLQSEDFAVYYCQQDYTSPWTFGQGTKLEIK
B15: unnamed (protein)
chain 1: QVQLVQSGSELKKPGASVKVSCKASGYTFTNYGMNWVRQAPGQGLEWMGWINTYTGEPTYADDFTGRFVFSLDTSVSTAYLQISSLKAEDTAVYYCARNPINYYGINYEGYVMDYWGQGTLVTVSS
chain 2: not shown
B16: unnamed (protein)
chain 1: EVQLVESGGGLVQPGRSLRLSCAASRFTFDDYAMHWVRQAPGKGLEWVSGISWNSGRIGYADSVKGRFTISRDNAENSLFLQMNGLRAEDTALYYCAKGRDSFDIWGQGTMVTVSS
chain 2: DIQMTQSPSSVSASVGDRVTITCRASQGISSWLAWYQQKPGKAPKLLIYGASSLESGVPSRFSGSGSGTDFTLTISSLQPEDFASYYCQQANSFPYTFGQGTKLEIK
B17: unnamed (protein)
chain 1: QVQLVQSGAEVKKPGASVKVSCKASGHIFSNYWIQWVRQAPGQGLEWMGEILPGSGHTEYTENFKDRVTMTRDTSTSTVYMELSSLRSEDTAVYYCARYFFGSSPNWYFDVWGQGTLVTVSS
chain 2: DIQMTQSPSSLSASVGDRVTITCGASENIYGALNWYQQKPGKAPKLLIYGATNLADGVPSRFSGSGSGTDFTLTISSLQPEDFATYYCQNVLNTPLTFGQGTKVEIK
B18: unnamed (protein)
chain 1: EVQLVESGGGLVQPGGSLRLSCAVSGLSLTSNSVNWIRQAPGKGLEWVGLIWSNGDTDYNSAIKSRFTISRDTSKSTVYLQMNSLRAEDTAVYYCAREYYGYFDYWGQGTLVTVSS
chain 2: DIQMTQSPSSLSASVGDRVTITCLASEGISSYLAWYQQKPGKAPKLLIYGANSLQTGVPSRFSGSGSATDYTLTISSLQPEDFATYYCQQSYKFPNTFGQGTKVEVK
B19: unnamed (protein)
chain 1: EVQLVESGGGLVQPGGSLRLSCAASGYDFTHYGMNWVRQAPGKGLEWVGWINTYTGEPTYAADFKRRFTFSLDTSKSTAYLQMNSLRAEDTAVYYCAKYPYYYGTSHWYFDVWGQGTLVTVSS
chain 2: DIQLTQSPSSLSASVGDRVTITCSASQDISNYLNWYQQKPGKAPKVLIYFTSSLHSGVPSRFSGSGSGTDFTLTISSLQPEDFATYYCQQYSTVPWTFGQGTKVEIK
B20: unnamed (protein)
chain 1: QVQLQQSGTVLARPGASVKMSCKASGYSFTRYWMHWIKQRPGQGLEWIGAIYPGNSDTSYNQKFEGKAKLTAVTSASTAYMELSSLTHEDSAVYYCSRDYGYYFDFWGQGTTLTVSS
chain 2: QIVSTQSPAIMSASPGEKVTMTCSASSSRSYMQWYQQKPGTSPKRWIYDTSKLASGVPARFSGSGSGTSYSLTISSMEAEDAATYYCHQRSSYTFGGGTKLEIK

Assay: patients with anti-drug antibodies; higher = more immunogenic

Compared with B1, B2 is lower in “patients with anti-drug antibodies” value: 24% for the first, 8% for the second.

Compared with B3, B4 is lower in “patients with anti-drug antibodies” value: 18.1% for the first, 2.9% for the second.

Going from B5 to B6, the “patients with anti-drug antibodies” value falls from 11% to 0%.

First: B7
Second: B8
The “patients with anti-drug antibodies” value of the first is lower: 0% for the first, 0.2% for the second.

First: B9
Second: B10
The “patients with anti-drug antibodies” value of the first is lower: 0% for the first, 3.5% for the second.

Compared with B11, B12 is lower in “patients with anti-drug antibodies” value: 58% for the first, 55% for the second.

First: B13
Second: B14
The “patients with anti-drug antibodies” value of the first is higher: 5% for the first, 0% for the second.

Compared with B15, B16 is lower in “patients with anti-drug antibodies” value: 9.4% for the first, 3.8% for the second.

First: B17
Second: B18
The “patients with anti-drug antibodies” value of the first is lower: 0.2% for the first, 5% for the second.

Compared with B19, B20 is lower in “patients with anti-drug antibodies” value: 3.5% for the first, 1.5% for the second.
